The target of test [1] is T1, Fc-tagged human PD-L1 extracellular domain (SinoBiological, cat. 10084-H02H) (human, UniProt Q9NZQ7 19-238).
T1 construct: extracellular domain; also called hPD-L1; not shown: Fc tag of the bought protein
As to the kind of experiment: SPR, captured Fc-PD-L1 ECD, scFv analyte, steady state. (SPR reads the build-up and loss of mass on a sensor chip optically.)

For test [2], the target named is T1, Fc-tagged human PD-L1 extracellular …. As to the kind of experiment: SPR.
Test [3] has the same target. The test is described as follows: SPR, captured Fc-PD-L1 ECD, scFv analyte, kinetic.
Test [4] addresses T2, human PD-L1 expressed on cells (CHO-PD-L1, HCC1954, HCC827) (human, UniProt Q9NZQ7 19-290).
T2 construct: whole, on cells; also called hPD-L1; PD-L1 expressing cells
As to the kind of experiment: flow cytometry, inhibition of biotinylated PD-1 binding to HCC1954 cells.

The target of test [5] is T1, Fc-tagged human PD-L1 extracellular …. As to the kind of experiment: SPR, captured Fc-PD-L1 ECD, steady state.
In test [6] the target is T3, CD3e on Jurkat PD-1 NFAT reporter T cells or on T cells of human PBMCs (human, UniProt P07766 23-207). The test is described as follows: cell-based or functional assay.
Test [7] has as its target T4, recombinant human IL-23R (custom-made by Trenzyme) (human, UniProt Q5VWK5 24-355).
T4 sequence (looked up): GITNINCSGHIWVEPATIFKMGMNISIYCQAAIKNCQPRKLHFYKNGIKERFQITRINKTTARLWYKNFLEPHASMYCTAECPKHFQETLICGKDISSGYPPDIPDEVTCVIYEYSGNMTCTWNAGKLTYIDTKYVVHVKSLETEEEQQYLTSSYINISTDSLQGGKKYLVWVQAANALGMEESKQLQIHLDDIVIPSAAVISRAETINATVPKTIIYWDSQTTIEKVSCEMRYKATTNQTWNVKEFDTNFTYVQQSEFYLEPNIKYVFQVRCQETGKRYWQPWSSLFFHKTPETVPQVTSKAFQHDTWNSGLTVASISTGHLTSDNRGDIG
The test is described as follows: SPR, immobilised IL-23R.

Test [8] deals with T5, human HER2 expressed on cells (SK-OV3, MCF-7, HCC1954, HCC827) (human, UniProt P04626 23-1255).
T5 construct: whole, on cells
The test is described as follows: flow cytometry, SK-OV3 cells, competitor 50 nM pertuzumab. (A flow cytometer gives signals particle by particle.)

Test [9] deals with T6, human serum albumin (human, UniProt P02768 25-609).
T6 construct: also called HSA; human SA
The test is described as follows: SPR, immobilised HSA, pH 5.5.

Test [10] concerns the target T3, CD3e on Jurkat PD-1 NFAT reporter T …. As to the kind of experiment: cell-based or functional assay. This is another data set of the same source.
In test [11] the target is T7, recombinant human CD3E ECD (SinoBiological, cat. 10977-H08H) (human, UniProt P07766 23-126).
T7 construct: extracellular domain; bought protein; also called CD3s
As to the kind of experiment: SPR, immobilised CD3e ECD, two-state model (kd1).

Test [12] addresses T7, recombinant human CD3E ECD …. The test is described as follows: SPR, immobilised CD3e ECD, two-state model (ka1).
Test [13] addresses T5, human HER2 expressed on cells (SK-OV3, …). The test is described as follows: flow cytometry, IFNy-stimulated HCC827 cells.
For test [14] the target is unchanged. The test is described as follows: flow cytometry, IFNy-stimulated HCC1954 cells.
The target in test [15] is T8, recombinant human Her2 ECD (SinoBiological, cat. 10004-HCCH) (human, UniProt P04626 23-652).
T8 construct: extracellular domain; bought protein
The test is described as follows: SPR, immobilised Her2 ECD.

In test [16] the target is T7, recombinant human CD3E ECD …. As to the kind of experiment: SPR, immobilised CD3e ECD, two-state model.
The target in test [17] is T5, human HER2 expressed on cells (SK-OV3, …). As to the kind of experiment: flow cytometry, MCF-7 cells.
The target is the same in test [18]. As to the kind of experiment: flow cytometry, SK-OV3 cells, no competitor.
Test [19] has the same target. As to the kind of experiment: flow cytometry, SK-OV3 cells.
In test [20] the target is T9, mouse serum albumin (mouse, UniProt P07724 25-608).
T9 construct: also called MSA; mouse SA
As to the kind of experiment: SPR, immobilised MSA, pH 5.5.

In test [21] the target is T3, CD3e on Jurkat PD-1 NFAT reporter T …. As to the kind of experiment: cell-based or functional assay. The source holds these as a separate data set.
Test [22] concerns the target T1, Fc-tagged human PD-L1 extracellular …. As to the kind of experiment: SPR, captured Fc-PD-L1 ECD, kinetic.
Test [23] addresses T2, human PD-L1 expressed on cells …. The test is described as follows: flow cytometry, inhibition of biotinylated PD-1 binding to HCC827 cells.
For test [24], the target named is T1, Fc-tagged human PD-L1 extracellular …. The test is described as follows: SPR, captured Fc-PD-L1 ECD, kinetic; kinetic analysis; the patent holds the steady state KD (3.47E-07 M) for the valid one.

One may read the Kd as a measure of binding affinity in units of concentration. In general, koff refers to a measure of how fast the partners let go of each other. As usually defined, the kon is a measure of how fast the partners come together. Usually IC50 stands for the concentration that inhibits the measured activity by half. Low values mean higher potency, high ones lower potency. In general, EC50 refers to the midpoint of the concentration-response curve. Higher therefore signals a less potent agent.

B1: PRO1434 (scFv, V domains shown)
VH: QVQLQESGPGLVKPSETLSLTCKVSGFSFSSGYDMCWIRQPPGKGLEWIGCVVAGSVDITYYASWAKGRVTISVDSSKNQFSLKLSSVTAADTAVYYCARKDAYSDAFNLWGQGTLVTVSS
VL: DIQMTQSPSSLSASVGDRVTITCQASQSINDYLAWYQQKPGKAPKLLIYKASTLASGVPSRFSGSGSGTDFTLTISSLQPEDFATYYCQAAYIITDIDNVFGTGTKVTVLG
notes: also called 33-03-G02 VL-Q108A/G109A
On to B1, for which the Kd in test [1] came to 487 nM. In addition, in test [2], the “fold reduction of affinity vs PRO830” value stood at 6500 fold. Moreover, in [3], the affinity, expressed as Kd, was 492 nM; the koff worked out at 0.535 s⁻¹; the on-rate constant (kon) was 1.09e+06 M⁻¹ s⁻¹.

B2: PRO1543 (multispecific antibody)
chain 1: not shown
chain 2: DIQMTQSPSSLSASVGDRVTITCQASQSINDYLAWYQQKPGKAPKLLIYKASTLASGVPSRFSGSGSGTDFTLTISSLQPEDFATYYCQAAYIITDIDNVFGTGTKVTVLGGGGGSGGGGSGGGGSGGGGSQVQLQESGPGLVKPSETLSLTCKVSGFSFSSGYDMCWIRQPPGKGLEWIGCVVAGSVDITYYASWAKGRVTISVDSSKNQFSLKLSSVTAADTAVYYCARKDAYSDAFNLWGQGTLVTVSSGGGGSGGGGSEVQLVESGGGLVQPGGSLRLSCAASGFSLSSYDMSWVRQAPGKGLAWIGASYASGPTYYASWAKGRFTISRDNSKNTVYLQMNSLRAEDTATYFCARGGWTGTSHSNIWGQGTLVTVSSGGGSGGGSEVQLVESGGGLVQPGGSLRLSCAASGFSFSSSYWICWVRQAPGKCLEWVGCVFTGDGTTYYASWAKGRFTISRDNSKNTVYLQMNSLRAEDTATYFCARPVSVYYYGMDLWGQGTLVTVSS
notes: also called trastuzumab-based MATCH4
Consider B2, for which the IC50 in [4] amounted to 0.601 µg/mL; in [23], 59.2 µg/mL. Also, the Kd worked out at 347 nM in test [5]; 0.81 nM in [9]; 0.406 nM in test [15]; 15.7 nM in [16]; 19.5 nM in test [20]; 20.9 nM in [24]. Further, the “IC50, NFAT reporter, CHO-PD-L1 (A2 clone) cells” value in test [6] was found to be 29.2 nM. In test [6], the “IC50, NFAT reporter, HCC1954 cells” value came out at 0.402 nM. In [6], the “IC50, NFAT reporter, HCC1954 cells, + nivolumab” value is 0.125 nM. In test [6], the “rel. max. activation vs PRO1497, NFAT reporter, HCC1954 cells” value came out at 102%. For the same molecule, the “rel. max. activation vs PRO1497 on HCC1954, NFAT reporter, CHO-PD-L1 (A2 clone) cells” value in [6] is 62%. Also, in [7], the binding result is reported as “no binding (tested: 90 nM highest concentration)”. The EC50 came out at 4.16 nM in [8]; 3.9 nM in test [13]; 27.8 nM in test [14]; 28.6 nM in test [17]; 4.09 nM in test [18]; 3.32 nM in [19]. Also, the koff stood at 0.000118 s⁻¹ in test [9]; 0.00542 s⁻¹ in test [11]; 6.26e-05 s⁻¹ in test [15]; 0.00117 s⁻¹ in [20]; 0.000367 s⁻¹ in [22]. In addition, the kon in test [9] came to 145000 M⁻¹ s⁻¹; in test [12], 190000 M⁻¹ s⁻¹; in test [15] it was 154000 M⁻¹ s⁻¹; in test [20], 60200 M⁻¹ s⁻¹; in [22], 17600 M⁻¹ s⁻¹. The “target cell killing IC50, 16 h, HCC1954 cells” value in test [10] was determined as 0.00023 nM. The “target cell killing IC50, 16 h, MCF-7 cells” value in test [10] came to 0.00311 nM. Besides, the KD1 in test [16] amounted to 28.5 nM. The kd2 in [16] amounted to 0.00503 s⁻¹. In test [21], the “T cell activation IC50, PBMC with HCC827 cells” value is 0.136 nM. Also, in test [21], the “T cell activation IC50, PBMC with HCC1954 cells” value worked out at 0.049 nM.

The values are drawn from patent US20220411536A1 (NUMAB THERAPEUTICS, published 2022).
